Results reported in the nanobody polyreactivity screen of Harvey et al. (2022).

Assay: yeast display, Sf9 membrane polyspecificity reagent, FACS + sequencing; frameworks hold sequencing errors
Method in brief: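 Sorting gates, low and high (top ~1%), were placed on anti-HA fluorescence to track expression and on streptavidin fluorescence to track reagent binding. A clone's polyreactivity label is taken from the gate it came out of. The reagent was 10% biotinylated, detergent-solubilized Sf9 membrane, applied for 1 hour at 4 °C to galactose-induced yeast display cells.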

Sequence | polyreactivity (PSR sort gate)
QVQLVESGGGLVQAGGSLRLSCAASGSIFFGYAMGWYRQAPGKERELVAAISTRGGRSYYADSVKGRFTISRDNAKNTVYFQMNSLKPVDTAVYYCNAASLVQAYSHADERYDYWGQGTQVTVSS | high polyreactivity
QVQLVESGGGLVQAGGSLRLSCAASGSTFVGYAMGWYSPAPGKERELVADIDSIGGSTYYADSVKGRFTISRDYANNTVYLQINSLKPEDTAVFYCAARRFDTALVLYDYWGPGTQVTVSS | low polyreactivity
QVQLVESGGGLVQAGGSLRLSCAASGRIFLRNTMGWYRQAPGTERELVAAITGRGGSTYYADSVKGRFTISRDNAKNTVYLQMNSLIPEDTAVYYCAARSPGYSPPGPVRLSDYWGQGTQVTVSS | high polyreactivity
QVQLVESGGGLVQAGGSLRLSCAASASTFGGYVMARYRQAPGKERELVAAISGNGASTTYADSVKGRFTISRDNAKNTVYLQMNSLKPEDTAVYDSAALFRKAHSDYDYWGQGTQVTVSS | low polyreactivity
QVQLVESGGGLVQAGGSLRLSCAASGSIFKVYAMGWYRQAPGKERELVAAISRGGSTYADSVKGRFTISRDNAKNTVYLQMISLKPEDTAVYYCNATVGRIYVTRYDYWGQGTQVTVSS | high polyreactivity
QVQLVDSGGGLVQAGGSLRLSCAASGSTFISYAMGWYRQAPGKERELVAAISRRGDSTYYADSVKGRFTISRDNAKNNVYLEMNSLKPEDTAVYYCAADVSGDKGSIHMNYWGQGTLVTVSS | low polyreactivity
QVQLVESGGGLVQAGGSLRLSCAASGRIFSLYTMGWYRQAPGKERELVATINRSSVSTRYADSVKGRFTISRDNAKNTGYLQMNSLKPEDTAVYYCAAQRSTRYPLYYWGQGTQVTVSS | high polyreactivity
QVQLVESGGGIVQAGGSLRLSCAASGYIFKYYAMGWYRQAPGKERELVAAITGGVSTNYADSVKGRFTISRDNAKNTVYLQMNSLKPEDTAVYYCAAAITPSDTGSEYDYWGQGTQVTVSS | low polyreactivity
QVQLVESGGGLVQAGGSLGLSCAASGFSFDRNAMGWYRQAPGKERGLVAAISSSGGRTYYPDSVKGRFTISRDYAKKTVYLQMNSLKPDDTAVYYCAAKLSRRYYYWGQGTQVTVSS | high polyreactivity
QVQLLESGGGLVQAGGTLRLSCAASGSIFFRNAMGWYRQAPGKERELVAAITWNGGSTYYADSVKGRFTISRDNAKNTVYLQMNSLKPDDTAVYYCNKYYYYRDSGYWGQGTQVTVSS | high polyreactivity
QVQLVESGGGIVQEGGSLRLSCAASGSTFDQNGMGGYRQAPGKERELVATISTSAGTYYADSVKGRFTISRDNAKNTVYLQMNSLKPEDTAVYYCNADLGGQYKEFDYWGQGTQVTVSS | low polyreactivity
QVQLVEAGGGLVQAGGSLRLSCAASGRIIIYNAMGWYRQPPGKERELVAAISSTGGSTNYADSVKGRFTISRDNAMNSVYLQMNSLKPEDTAVYYCNALPGRASLRYNYWGQGTQVTVSS | high polyreactivity
QVQLVESGGGLFQAGGSLRLSCAASGSTSIYNAMGWYRQAPGKERELVAAIDVRGGGTYADSVKGRFTISRDNAKNTVYLQMNSMKPEDTAVYYCNADYARYPNGWFRIVGSGYWGQGTQVTVSS | low polyreactivity
QVQLVESGGGLVQAGGSLRLSCAASGRILGFNVMGWYRQAPGKERELVAAITTSGGSTYYADSVKGRFTISRDNAKNTVYLQMNSLKPEDTAVYYCAARYRRFRFTHYDYWGQGTQVTVSS | high polyreactivity
QVQLVESGGCLVQAGGSLRLSCAASGIIFDDYAMGWYRQAPGKERELVAAISVSGGSTYYADSVKGRFTISRDNAKNTVYLQMKSLKPEDTAVYYCAARLRQPYSRGNYWGQGTQVTVSS | high polyreactivity
QVHLVESGGGLVQAGGSLRISGAASGSTFGTYAMGWYRQAPGKERELVAAITSGGSTDYADSVKGRFTISRDNAKNTVYLQMNSLKPEDTAVYYCTARGYGYLGRKGGYSYGYYYWGQGNQVTVSS | low polyreactivity
QVQLVESGGGLVHAGGSLRLSCAASGSTFHTYDMGWYRKAPWKERELVAAITSRDSTHYADSVKGCFTISRDNAKNTVYLQMNSLKPEDTAVYYCAASAPYLYYRSAYYYWGQGTQVTVSS | low polyreactivity
QVQLVESGGGLVQAGGSLRLSCAASGSTFFTYAMGWYRQAPGKERELVAAISWSGGTTYYSDSVKWRFTISRDYAKNTDYLQMNSLKPEDTAGYYCASDRDGILKANDYWGQGTQVTVSS | low polyreactivity
QVQLVESGGGLVQAGGSLRISCAASGRIFDRYVLGWYRQAPGKERELVAAISSGGSTYYADSVKGRFTISRDNAKNTVYLQMNSLKPEDTAVYYCAADRRSKYDYWGQGTQVTVSS | low polyreactivity
QVQLVESGGGLVQAGGSLRLSCAASGSIFRYYAMGWYIQAPGKERELVAAISYSGGTTYYADSVKGRFTISRDNAKNTVYLQMNSLKPEDTAVYYCAVPLIGVDGYAYDYWGQGTQVTVSS | low polyreactivity
QVQLVESVGGLVQAGGSLRLSCAASGRIFYNYVMGWYRQAPGKERELVAAISSDGGRTYYADSVKGRFTISRDNAKNTVYLQMNSLKPEDTAVYYCAAEWPYGGNGPGHTYEYWGQGTQVTVSS | high polyreactivity
QVQLVESGVGLVQAGGSLSITCAASGRTFAGNSMGSYRQAPGKERELVAAISQGGGSTYYADSVKGRFTISRDNAKNTVYLQMNSRKAEDTAVYYCAAEIPRRWASFATQWYDYWGLGTQVTVSS | low polyreactivity

Sequence | polyreactivity (PSR sort gate)
QVQLVESGGGLVQAGGSLRLSCAPSGRIFSYFAMGWYRQAPGKERELVAAISGNGGSTYYADSVKGRFTISRDNAKNTVYLQMNSLKPEDTAVYYCAADWWSSDWAYLYPYSYDYWGQGTQVTVSS | low polyreactivity
QVQLVESGGGLDQAGGSLRLSCAASGGIFYHNAMGWYRQAPGKERELVAVISWSRTRTYYADSVKGRFTISRDNAKNTVYLQMNILTPDDTAVYYCAASPDPYWVRMDYWGQGTQVNVSS | high polyreactivity
QVQLVESGGGLVQAGGSLRLSCAASGSIFYRNAMGWYRQAPGKERELVASITSGGRTNYADSVKGRFTISRDNAKNTVYLQMNSLKPEDTAVYYCARGRASYTKSGPTPYTGYGYWGQGTQVTVSS | low polyreactivity
QVQLVESGGGLVQAGGSLRLSCAASGSIYRNNAMGWYRQAPGKERELVAVISRRAGNTYYAVSVKGRFTISRDNAKNTVYLQMNSLKPEDTAVYYCAADYSKSSIRGDYWGQGTQVTVSS | low polyreactivity
QVQLVESAGGLVQAGGSLRLSCAASGFTFKSNAMGWYRQAPGKEREMVAAIDSRGDRTYYADSVKGRFTISRDNAKNTVYLQMNSLKPEDTAVYYCATKWRTYWSSGEYWGQGTQVTVSS | high polyreactivity
QVQLVESGGGLVQAGGSLRLSCAASGFTIGKNAMGWYRQAPGKERELVAAISLSGGRTYADSVKGRFTISRDNAKNTVYLQMNSLKPEDTAVYYCAANRYPKFYWGQGTQVTVSS | high polyreactivity
QVQLVESGGGLVQAGGSLGLSCAASGFIFSSNAMGWYRQARGKERELVAAITSGGGRTYSADSVKRRFTISRDNAKNTVYLQKNSLKPEDTAVYYCNAEQWQSSEYGEWSKRDYWGQGTQVTVSS | low polyreactivity
QVQLVESGGGLVQAGGSLRLSCAASGFTFYYYAMGWYRQAPGKERELVAAITSGGSTYYADSVKGRFTISRDNAKNTVYLQMNSLKPEDTAVYYCNTVHYNLDYEYDYWGQGTQGTVSS | low polyreactivity
QVQLVETGGGLVQAGGSLRLSCAASGFTFPNAMGWYRQAPGKERELVATISSSGGSTYYADSVKGRFTISRDNAKNTVYLQMNSLKPEDTEVYYCAASTRQYWIYRAYRDEYWGQGTQVTVSS | low polyreactivity
QVQLVESGGGLVQAGGSLRLSCAASGRTFADYAMGWNRQAPGKEREFVAAITYSGGSTYYADSVKGRFTISRDNAKNTVYLQMNSLKPEDTAVYYCNARPGSSYWYDAQWGEYGYWGQGTQVTVSS | high polyreactivity
QVQLVESGGGLVQAGGRLRLSCAASGSTFTDYAMGWYRQAPRKERELVASITSGGRTNYADSVKGRFTITRDNAKNTVYLQMNSLKPEDTAVYYCAADYSVPTSQAYDYWGQGTQVTVSS | low polyreactivity
QVQLVESGGGLVQAGGSLRLSCAASGRIFSPYVMGWYRQAPGKERELVAAITGSGGSTYYADSVKGRFTISRDNAKKTVYLQMNSLKPEDTAVYYCAVVSRTTAMDYRGQGTQVTVSS | high polyreactivity
QVQLVESGGGLVQAGGSLRLSCAASGITFFNYAMGWYRQAPGKERELVAAISGGSTYYADSVKGRFTISRDNAKNTVYLQMNSLKPEDTAVYYCAARVASKYLVYRKRPSRFDYWGQGTQVTVSS | low polyreactivity
QVQLQGSGGGLVQAGGSLRLSCAASGYIFQNVPMGWNRQAPGKERELVAGIDNGTSTNYADSVNGRFTISRDNAKNTVYLQMNSLNPVDTAVYYCAAAGQADDTLGYWGQGTQVTVSS | low polyreactivity
QVQLVESGGGLVQAGGSLRLSCAASGRTFYNNAMGWYRPAPGKERELVAVISGRGGSTYYADSVKGRFTISRDNAKNTVYLQMNSLKPEDTAVYYCAAGYTRPWRFTYYYWGQGTQVTVSS | high polyreactivity
QLQLVETGGGLVQAGGSLRLSCAASGSIIAKNAKGWYSQAPGTDRELVAAISKSGGITYYADSVKGRFSISRDNAKNTVYLQINSLKPEDTAVYYCNALSAGYIGVASRYYYWGQGTQVTVSS | high polyreactivity
QVQLVESGGGLVQAGGSLRLSCAASGRIFSSNAMGWYRQAPGKARELVAAISTSGSTKYADSVKGRFTSSRDNAKNTVYLLMNSLKPEDTAVYYCAAKGYEYRYRYDYWGQGTQVTVSW | high polyreactivity
QVQLVESGGGLVQAGGILRLSCAASGRTIYYYAMGRYRQAPRKERELVASISWSGGSTYYADSVKGRFTISRDNAKNTVYLQMNSLKPEDTAVSYCNAQYHTYRWLYAVYLSGDYWGQGTQVTVSS | low polyreactivity
QVQLVESGGGLVQAGGSLRLSCAASGRIYYSNVMGWYRQAPGTERELVAAISGRTGGTYYADSVKGRFTISRDNAKNTVYLQMNSLKPEDTAVYYCAARVIYYYGYCTYDYWGQGTQVTVSS | low polyreactivity
QVQLVESRGGLVQAGGSLRLSCAASGYILWRYAMGWYRQAPGKERELVASISSGVSTNYADSVKGRFTISRDNAKNTVYLQMYSLKPEDTAVYYCKTGRWLLGSMEYWGQGTEVTVSS | low polyreactivity
QVQLVESGGGLVQAGGSLRLSCAASGLTFVYNAMGWYRQAPGKERELVATISRGGSTYYADSVKGRFTISLDNAMNTVYLQMTSLKPEDTAVYYCNDDGYYDYDYGYWGQGTQVTVSS | low polyreactivity
